test: soluble on expression in E. coli; label from the status in PepcDB or PDB records

Row | Sequence | soluble on expression in E. coli
1 | MGSDKIHHHHHHVSIPANNSPVRLALIGAGRWGKNYIRTIAGLPGAALVRLASSNPDNLALVPPGCVIESDWRSVVSAPEVEAVIIATPPATHAEITLAAIASGKAVLVEKPLTLDLAEAEAVAAAAKATGVMVWVEHTQLFNPAWEALKADLTSIGPILAVRSEAGNHGPYRPGGVPMLWDWGAHDVSMVLDLMGRDPDSTSASWAARGEKDGGEAGDVTLTLAFSTVEAHIRLCNTMDKCRRLAVFGEAGTLVMDDRATDKLTLHPPQPDGNWPVGQGHALTVTDEMPLTRAVRLFAGAVRQPEPGPSPLELGLRVVRVLGACS | not soluble
2 | MGSDKIHHHHHHVSKILIIYSSVHGQTRKLCDFMQRELEALEHSVTCASIDNPPAMEGFDKIVLGASIRHGKHNPRVYDFIRENIKVLQEKASSFFSVSLVARKPAKNTPETNPYMQAFLAKSPWQPKLLAVFGGNLDYQGYNALDRNIIRFIMWITKGPTAPDTKVEYTDWDKVKHYAQQVDAL | not soluble
3 | MGSDKIHHHHHHVTALPYLIEPLVLPAAVDSPDAGAFREFGELSDALVLETWGNADRSSPQEARLQYWRDNPYTQLRLFFVWLDGRMVARSWIRFGIQENVHTAVLHVNVLAEFSGRGIGRALLRHAEELAAARGCTTLQTFTEHPADFDAGGAGVLKPETGTGGVPAAARGVRFALAAGYRLEQVERFSALELPLAGDTLAALETEALEKSGEQYELLHWTDRCPDGLAQQLAVLMSRMSTDTPVGALNYDEESWDVARVRHVEDTWQKAGLASLVAGARHRATGELAAYSVLQVSDAKPWLANQDDTLVASHHRGHRLGMLVKILNIRRLLAGYPGVERIITFNAAENDHMLAINVALGFHPEGYDGEWQKAL | not soluble
4 | MGSDKIHHHHHHVTSDLDFHLFCPKGALSDLVQGIWSVSRPAEADELHAWLHSDAASGLLINLGAPLGYDEQEVPAGVYLLPVNKQTTRVTLPPGALAVGVRFLPGAGRAWMMERFAFEQGREAITPLTYHAELMALAASLRACRGHRQRLSLTYRWLRANQTLNQPLPRVINEVLQALDRPDADMTAFENGVMSQRQIERYFRRYLEMTPKYYQRLMRARQTLQALKLSPLAPLADIALELGFADQAHMTRELKQLIKITPKRYRQLLTQGAG | not soluble
5 | MGSDKIHHHHHHVTSEIKRGVSLYSYQNETFQGKMTLEDCIRTSAELGAKGIEIIGEQTFWGWPECGVAQADVDTWHRLIKQYDCTPVSHDFMLDYKRYKGREMPFDEQVASVKNDVDFGARLGMKYIRALVSIAPEVLVAAAPYAEEKGIKILIEVHAPLHFDHPWIIRHAEAFEKSGSDALGFLPDMGMFLFAFPPVWKEKFLRIGVPKNIADYVEKAYEDRVLSEYVILNVQQMGGTGPAIAMAETLRHNAAFEPRRMLDYMHRIHNVHGKFYQMNEDYVEPSIPYDEIVKVLKQGGFNGYICSEYEGNRWIEDAEEPDSVEQVRRQQVMLARLLGETEVPTIQTSPTASAMAEAAA | not soluble
6 | MGSDKIHHHHHHVTSVSLGMPSAPPPVLAPRRKTRQIKVGSVGVGSDSPISVQSMTTTPTTDINATLQQIAELTASGCDIVRVACPSADDAEALPIIARKSQIPVIADIHFQPKYVFAAIEAGCAAVRVNPGNIRKFDDQVKEIARAAKDHGTSIRIGVNAGSLEPGILKKYGKATPEALVESAVWEASLFEEHGFHDFKISVKHNDPVIMVAAYEMLAEKGDWPLHLGVTEAGPAFQGTIKSATAFGALLSRGIGDTIRVSLSAPPVEEIKVGNQILQSLNLRPRKLEIVSCPSCGRAQVDVYTLAEQVTAGLEGMEIPLRVAVMGCVVNGPGEAREADLGVASGNGKGQIFVKGEVIKTVPESEIVETLIEEAMRIAEEMGEADGEDAVKGSPVVSVS | not soluble
7 | MGSDKIHHHHHHVVQKFNRLFGKSNKGVGIELAPERVNVVQLRKQRQGLKLETFTSVAVPEGVVTDGQITDPAAMAQLIQQALAESKIKTTRVATGVPGRDSIVRIIPVPTELDDKELREMVLNHEAGLYLPYPREEADVDYQKLDYFVDEDGIEKVHVLLVATRKEITDTYISTFEQAGLQIDVLEINSFALIRTIREQLRQFGPQEAAVLVDIEFDSTEIAIIVNGVPQFSRTVPIGTYQMQTALARAMSLPTSRDMELLHGMIIPPTPLDGGKTGVTEIDPGMAAILRVLGELTDELRRSIDFYLNQSENLEVAQILLAGPGGGLQQLDEFFTQRLSLPTTQIDPIGSLSLEVDTDKYPQVKRSGLAIVLGLGMREV | not soluble
8 | MGSDKIHHHHHHVVYRYGLALVTQPPLVSLEDLGYGHGPGQRLFDGLSLHIHSGECHCICGPTGSGKSSLLALIAGLNERPFAGVLECQSGVQVALVMQDPQVQLLRRTLGAEVAFGLENQGVAADDMPAAVKSALIRVGLELPLDTCIDTLSLGQKYRVMLASQLVLNPRVLLLDEPWAQLDDEGVGQLMVTLARLKADGMALIIAEHHPAAFAGLLDFHWLLDQGRLQPAAAGKASGALRADILCRWNPNGLGGRKCLTLAPCDLVLPTLAQGGRGRSGSKGFLSARFASAAPEGRSLFRLDTPLVLRTGDIRLLLGDNGSGKSTLLKALAGLQDGVKLPVKLDGRIPNTAAGEVALMLQRPSRQLFELTVVEELSFSIRRRGLDEAQVAWVQAFLAIEHLAAVSPHKLSWGQQHLVLLAALVITEPRLLLLDDPFAGLDEQSLMACIKLLNWYLSRGGCCVLACHRDVTGFEQVARWQLKDGLLTEVEASGQALAARDGAQTKPWELAAGGMGR | not soluble
9 | MGSMDQSIAVKSPLTYAEALANTIMNTYTVEELPPANRWHYHQGVFLCGVLRLWEATGEKRYFEYAKAYADLLIDDNGNLLFRRDELDAIQAGLILFPLYEQTKDERYVKAAKRLRSLYGTLNRTSEGGFWHKDGYPYQMWLDGLYMGGPFALKYANLKQETELFDQVVLQESLMRKHTKDAKTGLFYHAWDEAKKMPWANEETGCSPEFWARSIGWYVMSLADMIEELPKKHPNRHVWKNTLQDMIKSICRYQDKETGLWYQIVDKGDRSDNWLESSGSCLYMYAIAKGINKGYLDRAYETTLLKAYQGLIQHKTETSEDGAFLVKDICVGTSAGFYDYYVSRERSTNDLHGAGAFILAMTELEPLFRSAGK | soluble
10 | MGSSHHHHHHGGTGENLYFQGGSGMSRVPRPHIHQRISVEDIMKGNRRTLAKAITLAESSNPADSTRLGNLLREIHQMATVRTVPRFALSGSPGSGKSSLLDTLGYYLCEKKNMHVGVLAVDPSSTITHGSILGDKTRMEKLGTHLNSYIRPSPSGGHLGGVTSRAWEALEIFEAARFDVVFVETVGVGQSETQCKDLTDMMILLVPPASGDELQGIKKGVVEVADMVVVTKNDGRRKPLVQQTMSAYARAVMYTEEKQGFEKPVIAVSAEEGTNVPELWEAMLKMWNARLESGQIAHLRRAQSTKHFYNYFEMELLAKARRMTNLEMQNMAHRVWEHEMTPREAGDIMVLRTLREHLAADAAVQHDAGKRA | not soluble
11 | MGSSHHHHHHGGTGENLYFQGGSGSFRYTNHLVATLKHRLFLEAAHRQLVRQTFTGVCNGIEVTCTAYGSVVGIRMLDRAVWEPHYQVAADNKSEAAAATPTAPAAASPSRPSSSSSSSSTASGKTGIDLVKLSASIQAATWQAIQKVRAAKEETHSRSLRRNPQVLAEARLRDWYEQDANTLHPRPFDGLKNLEATEWMQAVRFGVPQPARYRRPNAAPKDLGEGGDGAHTDQKPRETITVLRDEDCDPANIPIGSVHPLFAPGLLQLEVDPNVATNGGSRVDEFFVLSEQRKEMRRDEEAFWERVELIRRSQLATIPKGGVKRGYADMADTVQDSIEEKVQLRFTQ | soluble
12 | MGSSHHHHHHGKTIFVIVPTNEEQVAFLEALAKQDELNFDWQNPPTEPGQPVVILIPSDMVEWFLEMLKAKGIPFTVYVEEGGSENLYFQGGGGGGQRHAHDSAVGDKALTHKGRLRLSQNASGSAAGRCGSDDGNDSDQGGVDDDNGGAVGRRRRGAGGVLRRRRPQERGGNARRGGSDGDENSYDGDDAGGIPETDANGVKLTRLQRKKLAKEREREERRQAQEAALEAQRQRMDVNELRDAEAALREEELKAAEEAALQQLRRDKKKAEDEEYAKWVSHIGVEERGELGDEERERQTRMQSFLLDRAAQVQARARRSAAGAKSSPSEEECIHVLILQTAARDLKVSVEELVSTIEQLSQVDKVHGVFDDRGKYVFIAPEQFPLLAQFIRLRGRVSVQEFTRECNRVVMQS | soluble
13 | MGSSHHHHHHGKTIFVIVPTNEEQVAFLEALAKQDELNFDWQNPPTEPGQPVVILIPSDMVEWFLEMLKAKGIPFTVYVEEGGSENLYFQGGGGGGSDGAIVPREGSPQSISEELERRRSEARNLELRVSRKEAELQRAKEEQELLKEMRTVNEMIIRKKERQLSEGVANGVKISPESLAELNALGDALRLENLKTVELQREADVTSHQMEEVERSLENTEKQLLEAKRSTGWDVDRNSARTETAMESAFKEKKRLLSSLTSEQRTLSELSERLKQHAEECQAKVDAAEGMDERFAEAEEQLRQANARYRELIEEVMSNERIQKKTERVLTVANTQDKYKCIRQLEGEKRALHNDLSKLRETNVSNSRSILSLEVRLRQLETRLEAVNGFLREVFAEVEDDEPMDNVPEGAVEVPLALFEELSAALELSRETVVQRDDQLDEHDCKIEQMERKVVILQNAIASRAVSAQVQARGRDTQQRSMYANHSRRRSQLRTERDQLAVENTVLRNRLALL | not soluble
14 | MGSSHHHHHHSQDPPAVHKLTKRIPLRRQVTVSAESSSSMNSNTPLVRITTRLSSTADTPMLAGVSEYELPEDPKWEFPRDKLTLGKPLGEGCFGQVVMAEAVGIDKDKPKEAVTVAVKMLKDDATEKDLSDLVSEMEMMKMIGKHKNIINLLGACTQDGPLYVIVEYASKGNLREYLRARRPPGMEYSYDINRVPEEQMTFKDLVSCTYQLARGMEYLASQKCIHRDLAARNVLVTENNVMKIADFGLARDINNIDYYKKTTNGRLPVKWMAPEALFDRVYTHQSDVWSFGVLMWEIFTLGGSPYPGIPVEELFKLLKEGHRMDKPANCTNELYMMMRDCWHAVPSQRPTFKQLVEDLDRILTLTTNEE | soluble
15 | MGSSHHHHHHSSGLVPRGSHMASGTSKDASGGSSSGKEVLEFYHGYHHSEDEWPVAKTMRDLYDKFAEEHKDSGVEFKPTPVNGDLKDIMNNKVASGEFPDVIDLAGNAVSLAAIEQKLVLDLKPYIDSNKLEKNVGLNYKQNQKDGKIYTVHEQLFTMGLWYNKDIFAKAGAKTPDQWNTWDDFTQAMASIRKQDGVYAFGAGEPSIRLFNTVLGTTENGRKLLDKPLTKEGIESKEFADALKMVMKEIQANGSKNAGGDANAYSKDFQEGKSAVFFNGVWASGEMSKNPSLAPGIYPAGVAISSSGGGITISSKMSEAKQKLALEFLKYMTSDDVQKVIFEKVGANPSNENVNVKELSEKSSEATTKILGQAITQVKNAKAVVPTVSDVWGGDVHTAIINALTESAAENVDVDQKVKSTQDVLKSLIG | soluble
16 | MGSSHHHHHHSSGLVPRGSHMASMTGGQQMGRGSMIIDDLLTKKIIKPRPLNSHKGTFGRVLLIGGNYPYGGAIIMAALACVNSGAGLVTVATHKDNITALHSHLPEAMAFDMVEKDRLSEQITAADVVLMGPGLAEDDLAQTTFDVVWQAIEPKQTLIIDGSAINLLAKRKPAIWPTKQIILTPHQKEWERLSGLTIPEQIEAATQTALAHFPKETILVAKSHQTKIYQGQKIGHIQVGGPYQATGGMGDTLAGMIAGFVAQFHTDRFEVAAAAVFLHSYIADQLSKEAYVVLPTRISAEITRVMKEMSE | soluble
17 | MGSSHHHHHHSSGLVPRGSHMIRNRVMNSVVNKYLLHNRSIMFKNDQDVERFFYKREIENRKKHKQPSTLNVKANLEKLSLDDMQVFRFNFRHQIDKKILYIHGGFNALQPSPFHWRLLDKITLSTLYEVVLPIYPKTPEFHIDDTFQAIQRVYDQLVSEVGHQNVVVMGDGSGGALALSFVQSLLDNQQPLPNKLYLISPILDATLSNKDISDALIEQDAVLSQFGVNEIMKKWANGLPLTDKRISPINGTIEGLPPVYMFGGGREMTHPDMKLFEQMMLQHHQYIEFYDYPKMVHDFPIYPIRQSHKAIKQIAKSIDEDVTQNN | soluble

From the DeepSol protein solubility set
